Assay results reported in patent publication US20240254244A1 (QYUNS THERAPEUTICS, published 2024).

T1: Human IFNAR1 on cells (HEK Blue IFNα/β cells, Daudi cells, human whole blood) (human, UniProt P17181 28-557)
T1 sequence (looked up): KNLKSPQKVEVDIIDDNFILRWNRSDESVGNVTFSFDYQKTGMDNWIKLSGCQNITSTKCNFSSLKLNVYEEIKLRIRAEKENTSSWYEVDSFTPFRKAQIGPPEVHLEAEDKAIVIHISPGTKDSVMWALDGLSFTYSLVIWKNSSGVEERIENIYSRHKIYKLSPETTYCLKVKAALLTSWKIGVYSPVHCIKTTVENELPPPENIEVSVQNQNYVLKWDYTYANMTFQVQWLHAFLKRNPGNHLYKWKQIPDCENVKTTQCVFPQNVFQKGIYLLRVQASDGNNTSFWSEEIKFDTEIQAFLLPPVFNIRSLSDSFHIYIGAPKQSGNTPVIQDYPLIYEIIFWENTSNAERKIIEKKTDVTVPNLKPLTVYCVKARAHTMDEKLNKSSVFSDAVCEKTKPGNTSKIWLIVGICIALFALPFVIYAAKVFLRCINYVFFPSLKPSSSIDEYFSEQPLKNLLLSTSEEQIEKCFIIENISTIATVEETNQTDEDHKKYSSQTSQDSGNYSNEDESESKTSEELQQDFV

T2: Human interferon alpha receptor 1 (IFNAR1) (human, UniProt P17181 28-436)
T2 construct: Soluble antigen flowed over captured antibody in Biacore; also called human IFNAR1; Human Interferon alpha/beta Receptor 1
T2 sequence: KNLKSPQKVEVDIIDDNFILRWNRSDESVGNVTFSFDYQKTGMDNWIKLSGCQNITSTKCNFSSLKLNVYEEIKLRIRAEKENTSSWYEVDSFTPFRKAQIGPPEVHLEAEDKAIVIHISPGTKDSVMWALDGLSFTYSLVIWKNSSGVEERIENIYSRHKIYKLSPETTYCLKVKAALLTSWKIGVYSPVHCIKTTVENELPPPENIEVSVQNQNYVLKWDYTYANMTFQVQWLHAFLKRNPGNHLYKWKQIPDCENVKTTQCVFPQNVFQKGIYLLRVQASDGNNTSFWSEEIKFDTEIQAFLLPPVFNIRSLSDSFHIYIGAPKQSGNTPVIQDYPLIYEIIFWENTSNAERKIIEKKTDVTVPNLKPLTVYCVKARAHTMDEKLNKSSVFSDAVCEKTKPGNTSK


Tests used:
[1] = target: T1, Human IFNAR1 on cells (HEK Blue IFNα/β …); assay: cell-based or functional assay
[2] = target: T2, Human interferon alpha receptor 1 …; assay: SPR, Biacore T200, antibody captured on Protein A chip, antigen as analyte, 25 C, 1:1 model, mean of three
Description: BiacoreT200 was used to detect the affinity between QX006N (HZD1203-45-IgG4.1) and human IFNAR1. All processes were performed at 25° C. A commercial Protein A chip was used to immobilize an appropriate amount of antibody through the capture method so that Rmax was around 50 RU and the capture flow rate was 10 μl/min. The antigen was gradient diluted, the flow rate of the instrument was switched to 30 μl/min, flowed through the reference channel and the fixed antibody channel in order of concentration from low to high, and flowed through buffer as the negative control. The chip was regenerated with pH1.5 glycine after each binding and dissociation was completed. The built-in analysis software of the instrument was used to select the 1:1 binding model in the Kinetics option for fitting, and the antibody's binding rate constant kₐ, dissociation rate constant kd, and dissociation equilibrium constant KD values were calculated.
The data in the table were: each sample was tested three times and the average value was calculated.

| EC50 of neutralising the effect of interferon (0.8 ng/ml IFNα.2b) on Daudi cell proliferation (CellTiter-Glo) [1] [µg/mL] | IC50 of inhibiting interferon (0.2 ng/ml IFNα.2b) induced STAT1/2 phosphorylation in HEK Blue IFNα/β reporter cells [1] [µg/mL] | IC50 of inhibiting interferon (8 ng/ml IFNα.2b with 40 ng/ml TNF-α) induced release of CXCL10/IP10 from human whole blood [1] [µg/mL] | Kd [2] [nM] | koff [2] [s⁻¹] | kon [2] [M⁻¹ s⁻¹] | Binder |
| --- | --- | --- | --- | --- | --- | --- |
| 0.0317 | 0.00443 | 0.562 |  |  |  | Anifrolumab (antibody, V domains shown) VH: EVQLVQSGAEVKKPGESLKISCKGSGYIFTNYWIAWVRQMPGKGLESMGIIYPGDSDIRYSPSFQGQVTISADKSITTAYLQWSSLKASDTAMYYCARHDIEGFDYWGRGTLVTVSS VL: EIVLTQSPGTLSLSPGERATLSCRASQSVSSSFFAWYQQKPGQAPRLLIYGASSRATGIPDRLSGSGSGTDFTLTITRLEPEDFAVYYCQQYDSSAITFGQGTRLEIKR |
| 0.0299 | 0.00523 | 0.698 | 0.108 | 3.76e-05 | 347000 | QX006N (HZD1203-45-IgG4.1) (antibody, V domains shown, Humanized rabbit antibody (clone 1203#) with human IgG4 constant region, expressed in ExpiCHO-S cells; also called anti-human interferon alpha receptor 1 (IFNAR1) monoclonal antibody of the present application) VH: EVQLVESGGGLVQPGGSLRLSCAASGFSLSSYYMTWVRQAPGKGLEWVSVINVYGGTYYASWAKGRFTISRDNSKNTLYLQMNSLRAEDTAVYYCAREDVAVYMAIDLWGQGTLVTVSS VL: AIQMTQSPSSLSASVGDRVTITCQASQSISNQLSWYQQKPGKAPKLLIYDASSLASGVPSRFSGSRSGTKFTLTISSLQPEDFATYYCLGIYGDGADDGIAFGGGTKVEIKR |
